Measured values taken from article PMC10635571.

Target: hnRNPK (human (endogenous in HeLa)) (UniProt P61978)
Test: native gel or EMSA; blue native PAGE (4-13%) of the lhCLIP sample: HeLa cells UV-crosslinked, lysate immunoprecipitated with anti-hnRNPK, MNase digestion, pCp-biotin labelling, ligation, eluted from beads at 70°C for 10 min without reducing agents; blotted with anti-hnRNPK antibody

stoichiometry N: 2
Substance: hnRNPK, P61978 1-463 (natural protein; other documents disagree on this pair)
